Patent CN118459575A

Target: 新型冠状病毒SARS-CoV-2和SARS-CoV以及动物来源的SARS-like冠状病毒S1
Assay: ELISA, S1 coated at 2 μg/mL, antibody titrated

B1: 广谱抗sarbecovirus和/或新冠突变株的抗体 SCM12-61 (antibody, V domains shown)
VH: QVQLVESGGGVVQPGRSLRLSCATSGFTFRSSAMHWVRQAPGKGLEWVAVIWFDGIKKYYTDSVKGRFTISRDNSKNTLYLQMNSLGAEDTAVYYCARDRAREFYPGPHCGDECYSSDAFDVWGQGTTVIVSS
VL: DIQMTQSPSSLSASVGDRVTITCRASQDINTYLNWYQQKSGRAPKFLIYAASSLQSGIPSRFSGSGSGTDFTLTIDSLQPEDFATYYCQQSHSIPYTFGQGTKLEIKR
EC50: 0.0239 to 0.0405 µg/mL
